Entries after “also recorded” stand apart in the source; their conditions may differ. Blank lines part the entries; values can stand above or below the molecule they belong to.
Key:
p42/p44 MAP kinases [1] = assay: p42/p44 MAP kinase phosphorylation in embryonic cardiomyocytes (immunoblot); type: cell-based, mouse
Method: (§1) Mouse embryos (E11.5-12.5) were used to prepare primary cardiac myocytes. Heart tissue was isolated aseptically from embryos. Myocardial cells were isolated by collagenase digestion and separated from non cardiomyocytes by preattachments on culture dishes that was performed three times. Cells were then cultured as described previously. Using this method, it was routinely possible to obtain primary cultures with >90% myocytes.
(§2) Embryonic myocardial cells were cultured in serum-free medium for at least 24 hrs and then stimulated with rhNRGβ2 or IGF-I for various times. Stimulation was terminated by washing cells rapidly with cold PBS. To block the MAP kinase activation, the MEK inhibitor, PD98059, was added to the medium 30 mins prior to the administration of rhNRGβ2 or IGF-I. Cells were then harvested as previously described for Western blot analysis with HRPO-conjugated monoclonal antibody RC20H (1:2,000) for detection of phosphorylated ErbB receptors, or a phospho-specific p42/p44 MAP kinase antibody (dilution ratio 1:1,000) for detection of phosphorylated MAP kinases. The same amount of cell extract protein was loaded into each lane and separated by SDS-PAGE. Immunobloting with an anti-ErbB receptor or anti-p42/44 MAP kinase antibodies was also used to normalise for protein loading. MAP-kinase (p42/p44) activity was measured using a p42/44 MAP kinase enzyme assay kit (RPN84; Amersham, Bucks, U.K.) according to the manufacturer's instructions.

p21^CIP1 = p21^CIP1 protein expression in embryonic cardiac muscle cells (immunoblot); type: cell-based, mouse
Method: as §1
Embryonic myocardial cells cultured in serum-free or 5% FBS medium were stimulated with various concentrations of rhNRGβ2 with or without the MEK inhibitor, PD98059, for 24 or 48 hrs, harvested as described above and subjected to immunoblot analysis using an anti-p21^CIP1 antibody (1:100). The same amount of protein was loaded into each well of a SDS polyacrylamide gel. After immunoblotting, the membrane was stripped and probed further with an antibody to the ErbB2 receptor for normalisation of protein loading.

[2] = test system: E12.5 mouse cardiac muscle cells; assay: Sarcomeric and cytoskeletal structure of embryonic mouse cardiac muscle cells (phalloidin and anti-α-actinin staining); type: cell-based; settings: for sarcomeric actin reorganisation and contractile unit assembly: 48 hrs, serum-free
Method: as §1
(§3) Myocardial cells were plated in 2-well Novex plates (Nunc), and cultured with or without rhNRGβ2 in serum-free DMEM medium for 24-48 hour. After rinsing the cells with PBS, they were fixed with 4% paraformaldehyde and 0.1% Triton X-100 at room temperature for 30 minutes. The fixed cells were then blocked with 5% skim milk in PBS for 1 hr, followed by incubation with an anti-α-actinin monoclonal antibody (Sigma), for 45 minutes at room temperature. After washing, anti-mouse IgG conjugated with FITC (Sigma) was added and the cells were incubated for another half hour. For phalloidin staining, cells were fixed with 4% formadehyde for 1 hr, washed, and stained with phalloidin buffer (100 μl PBS, 10 μl rhodarmine phalloidin (6.6 μM in MeOH)) for 1 hr. After PBS washing, cells were mounted with 1% p-phenylenediamine (1 mg/ml, Sigma) in glycerol, and then covered and sealed. Cells were examined using a UV fluorescent microscope and photographed with a 40× power objective.

ventricular muscle cells = settings: cited from earlier work; for hypertrophy score (maximal increase in cell size): scale 7 to 0, 3 = non-stimulated cells, 7 = fully hypertrophied
[3] = test system: neonatal rat cardiac muscle cells; assay: Sarcomeric and cytoskeleton structures and MHC-α expression of cultured neonatal rat cardiac muscle cells; type: cell-based; settings: for sarcomeric and cytoskeleton structures, cell-cell adhesions: single agent, Phalloidin and anti-α-actinin staining
Method: By using primary cultured myocardial cells as a model system, the present inventor evaluated neuregulin signalling in cardiac myocyte differentiation, maturation and assembly or maintenance of sarcomeric and cytoskeleton structures. To assay the neuregulin effect on cell signalling, embryonic cardiac muscle cells were incubated with recombinantly purified human neuregulin ligand (rhNRGβ2). […] Such an effect was not found from the cells stimulated with either insulin IGF-1 or PE. […] These findings indicate that NRG function through two distinct pathways: one activated at lower ligand concentrations results in cardiomyocyte growth, whereas the other, activated with higher concentrations, is mediated by sustained activation of the MAP kinase pathway and results in terminal differentiation and maturation.
as §3

[4] = test system: embryonic mouse cardiomyocytes; assay: DNA synthesis ([3H] thymidine incorporation) in cultured embryonic mouse cardiomyocytes; type: cell-based; settings: for effect on IGF-I (10^−9M)-stimulated DNA synthesis: 20 hrs
Method: as §1
Embryonic myocardial cells were cultured with rhNRGβ2 or IGF-I containing serum-free DMEM for 20 hrs. [methyl-^3H] Thymidine (0.5 μCi/well) was added and cells were then cultured for a further 12 hrs. After rinsing twice with cold PBS, once with ice-cold 10% trichloroacetic acid, and then five times with ice-cold PBS, the cells were dissolved in 100 μl of 1% SDS, and counted in a liquid scintillation counter.
(§4) All of the above assays were repeated at least three times for each experiments. Data for DNA synthesis and MAP kinase activity are presented as the mean±S.E of five replicate samples. Statistical significance was determined by ANOVA using the SAS statistical package with P<0.05 being considered significant. Immunoblots were quantitated by densitometry analysis with the intensity of the evaluated protein bands being shown below the blots as the fold changes over control (see FIGs).

p42/p44 MAP kinases [5] = assay: MAP kinase catalytic activity in extracts of treated cardiomyocytes (p42/44 MAP kinase enzyme assay kit); type: cell-based, mouse
Method: as §1
Embryonic myocardial cells were cultured in serum-free medium for at least 24 hrs and then stimulated with rhNRGβ2 or IGF-I for various times. Stimulation was terminated by washing cells rapidly with cold PBS. […] MAP-kinase (p42/p44) activity was measured using a p42/44 MAP kinase enzyme assay kit (RPN84; Amersham, Bucks, U.K.) according to the manufacturer's instructions.
as §4, with “Data for DNA synthesis and MAP kinase activity are presented as the mean±S.E of five replicate samples.” left out

[6] = test system: sarcomeric myosin heavy chains; assay: Sarcomeric myosin heavy chain and sarcomeric actin expression in embryonic mouse cardiac muscle cells (immunoblot); type: cell-based; settings: rhNRGβ2-stimulated
Method: FIGS. 6A-6B. Effects of NRG on cardiac sarcomere assembly and myosin heavy chains expression. FIG. 6A. E12.5 mouse cardiac muscle cells were cultured in serum-free medium (control) or stimulated with 10^−10 or 10^−8M rhNRGβ2 (NRG) for 48 hrs. Cells were then stained with phalloidin (left panels) or evaluated for anti-α-actinin immunoflorescency (right panels). FIG. 6B. Sarcomeric myosin heavy chain α-actin expression rhNRGβ2-stimulated embryonic mouse cardiac muscle cells were evaluated by immunoblot analysis using an anti-sarcomeric myosin heavy chain antibody (MF20) or an anti-α-actinin antibody. The same amount of whole cell extracts (20 μg proteins) was loaded into each lane for SDS-PAGE fractionation.
as §1

[7] = molecular target: T1, ErbB2 and ErbB4 receptors (Mus musculus, UniProt Q61527); assay: ErbB receptor phosphorylation in embryonic cardiomyocytes (Western blot / immunoprecipitation); type: cell-based
T1 construct: ErbB2 and ErbB4 are most abundantly expressed in cardiac myocytes; endogenous in cells; host or cells: primary embryonic (E11.5-12.5) mouse cardiac myocytes
T1 sequence (Q61527 26-1308): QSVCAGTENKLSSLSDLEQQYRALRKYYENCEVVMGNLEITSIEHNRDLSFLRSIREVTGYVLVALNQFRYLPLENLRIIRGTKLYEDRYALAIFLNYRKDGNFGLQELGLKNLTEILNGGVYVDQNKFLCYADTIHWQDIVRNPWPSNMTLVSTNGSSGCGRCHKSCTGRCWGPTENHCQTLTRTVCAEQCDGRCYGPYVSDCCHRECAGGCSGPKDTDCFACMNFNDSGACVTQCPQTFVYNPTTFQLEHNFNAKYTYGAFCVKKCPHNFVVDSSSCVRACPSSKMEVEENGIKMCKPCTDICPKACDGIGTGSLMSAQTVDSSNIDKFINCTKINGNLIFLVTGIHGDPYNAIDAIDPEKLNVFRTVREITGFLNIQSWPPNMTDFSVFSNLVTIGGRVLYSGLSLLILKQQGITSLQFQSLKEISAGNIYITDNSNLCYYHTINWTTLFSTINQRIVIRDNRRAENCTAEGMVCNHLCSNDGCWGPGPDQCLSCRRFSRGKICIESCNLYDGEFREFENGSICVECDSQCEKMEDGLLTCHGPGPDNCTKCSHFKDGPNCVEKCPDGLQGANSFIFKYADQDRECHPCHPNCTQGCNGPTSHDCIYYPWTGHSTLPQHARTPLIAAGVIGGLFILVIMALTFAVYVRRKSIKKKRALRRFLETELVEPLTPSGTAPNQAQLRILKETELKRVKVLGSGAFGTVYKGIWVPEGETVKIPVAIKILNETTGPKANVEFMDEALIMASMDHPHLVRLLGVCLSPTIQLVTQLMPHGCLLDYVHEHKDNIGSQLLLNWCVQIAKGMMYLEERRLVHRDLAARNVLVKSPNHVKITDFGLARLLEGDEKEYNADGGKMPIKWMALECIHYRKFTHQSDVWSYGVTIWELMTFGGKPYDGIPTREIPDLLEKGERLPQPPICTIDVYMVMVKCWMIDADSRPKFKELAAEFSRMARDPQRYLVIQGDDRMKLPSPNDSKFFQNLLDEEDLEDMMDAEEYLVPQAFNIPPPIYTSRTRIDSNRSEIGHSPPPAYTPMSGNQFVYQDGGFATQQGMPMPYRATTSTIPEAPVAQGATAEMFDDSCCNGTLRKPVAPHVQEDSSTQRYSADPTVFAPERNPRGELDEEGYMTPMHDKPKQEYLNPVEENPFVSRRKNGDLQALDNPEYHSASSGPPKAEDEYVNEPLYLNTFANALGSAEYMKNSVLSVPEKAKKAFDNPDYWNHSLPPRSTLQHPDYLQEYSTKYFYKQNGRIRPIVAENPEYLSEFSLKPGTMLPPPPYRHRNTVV
T1 sequence (P70424 23-1256 partner): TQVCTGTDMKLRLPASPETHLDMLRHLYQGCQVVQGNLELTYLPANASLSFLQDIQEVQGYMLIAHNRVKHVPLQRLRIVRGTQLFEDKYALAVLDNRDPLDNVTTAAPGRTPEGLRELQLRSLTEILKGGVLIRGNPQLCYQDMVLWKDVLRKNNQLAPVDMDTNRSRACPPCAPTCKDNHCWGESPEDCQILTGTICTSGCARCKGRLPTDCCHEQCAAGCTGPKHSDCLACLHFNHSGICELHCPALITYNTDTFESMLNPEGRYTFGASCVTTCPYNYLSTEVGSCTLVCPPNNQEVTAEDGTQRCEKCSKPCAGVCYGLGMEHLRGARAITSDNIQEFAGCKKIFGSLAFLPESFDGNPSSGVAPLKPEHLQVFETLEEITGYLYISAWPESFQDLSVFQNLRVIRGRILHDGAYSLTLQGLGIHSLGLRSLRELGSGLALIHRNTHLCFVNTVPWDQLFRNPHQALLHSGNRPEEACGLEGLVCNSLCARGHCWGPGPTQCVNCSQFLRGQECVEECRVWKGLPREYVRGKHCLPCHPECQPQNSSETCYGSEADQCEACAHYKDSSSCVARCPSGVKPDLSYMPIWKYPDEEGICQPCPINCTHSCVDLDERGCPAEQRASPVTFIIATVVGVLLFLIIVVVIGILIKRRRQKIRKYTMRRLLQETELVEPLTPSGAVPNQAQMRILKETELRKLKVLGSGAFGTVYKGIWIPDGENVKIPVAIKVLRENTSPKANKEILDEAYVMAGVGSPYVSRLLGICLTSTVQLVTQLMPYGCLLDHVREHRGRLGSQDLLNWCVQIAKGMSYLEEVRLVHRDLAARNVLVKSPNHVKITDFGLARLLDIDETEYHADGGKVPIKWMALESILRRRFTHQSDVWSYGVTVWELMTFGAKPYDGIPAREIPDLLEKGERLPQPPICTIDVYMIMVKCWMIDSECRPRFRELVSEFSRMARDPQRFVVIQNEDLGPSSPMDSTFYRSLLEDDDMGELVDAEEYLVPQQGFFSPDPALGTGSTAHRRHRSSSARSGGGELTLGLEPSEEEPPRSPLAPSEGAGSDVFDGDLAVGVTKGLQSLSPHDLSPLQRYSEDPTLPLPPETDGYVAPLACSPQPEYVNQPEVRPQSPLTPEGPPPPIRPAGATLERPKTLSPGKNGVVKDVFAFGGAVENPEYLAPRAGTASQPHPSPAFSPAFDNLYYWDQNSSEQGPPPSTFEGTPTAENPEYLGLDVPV
Method: as §1
as §2, with “Immunobloting with an anti-ErbB receptor or anti-p42/44 MAP kinase antibodies was also used to normalise for protein loading.” left out

[8] = test system: MCF-7 breast cancer cell ErbB receptors; assay: Stimulation of MCF-7 breast cancer cell ErbB receptors (activity check of purified protein); type: cell-based; settings: ligand 10^−12M to 10^−8M, MCF-7 cells
From the text: A cDNA encoding the EGF-like domain of human NRGβ2 isoform (rhNRGβ2, residues 177-237, was inserted into the pFLAG1 expression vector (IBI) (a gift from Dr. Rodney J. Fiddes, Co-operative Research Centre for Biopharmaceutical Research, Australia). rhNRGβ2 with a FLAG-peptide attached at its N-terminus, was expressed in the periplasmic space of E. coli DH5α, and purified by affinity chromatography using anti-FLAG M1 monoclonal antibody according to the manufacturer's instructions. The purity of rhNRGβ2 was more than 90% as evidenced by SDS-PAGE separation and Coomassie Blue staining of purified protein samples. The concentration of purified proteins was determined using a Bio-Rad protein assay kit. Activity of the purified proteins was assayed by stimulation of MCF-7 breast cancer cell ErbB receptors with various ligand doses.

effect on NRG-induced increase in p42/44 MAP kinase phosphorylation (p42/p44 MAP kinases [1]; PD98059 added 30 mins before, cells stimulated 5 min): blocked
Molecule: COc1cccc(-c2cc(=O)c3ccccc3o2)c1N [PD98059, reference compound]
effect on p21^CIP1 expression induced by 10^−8M rhNRGβ2 (p21^CIP1; PD98059 50 μM, presence or absence of serum): blocked the increase in p21^CIP1 expression
sensitivity of rhNRGβ2 effects on cardiomyocytes to MEK1 inhibition ([2]; PD98059): sensitive to MEK1 inhibition

phosphorylation of immunoprecipitated ErbB2 and ErbB4 ([7]; 5 min stimulation, 10^−10M or 10^−8M): dependent on rhNRβ2 concentrations
duration of p42/p44 MAP kinase phosphorylation (p42/p44 MAP kinases [1]; 10^−8M (higher dose)): at least 21 hours
MAP kinase activation (phosphorylation) time course (p42/p44 MAP kinases [1]; 10^−10M (lower ligand concentration), fell to basal level in less than three hours): only transient activation
MAP kinase phosphorylation time course (p42/p44 MAP kinases [1]; combination of IGF-I (10^−9M) and rhNRGβ2 (10^−8M)): sustained MAP kinase phosphorylation
B1: rhNRGβ2: EGF-like domain of human NRGβ2 isoform, residues 177-237 (SEQ ID NO: 2), FLAG-peptide at N-terminus, expressed in E. coli DH5α (protein, listed as Homo sapiens)
chain: {FLAG}-SHLVKCAEKEKTFCVNGGECFMVKDLSNPSRYLCKCPNEFTGDRCQNYVMASFYKAEELYQ
modifications: also: recombinant protein expressed in E. coli
duration of MAP kinase catalytic activity (p42/p44 MAP kinases [5]; 10^−8M): at least 21 hours
MAP kinase catalytic activity time course (p42/p44 MAP kinases [5]; 10^−10M): only transient
expression of sarcomeric myosin heavy chains ([6]; MF20 immunoblot): enhanced expression of sarcomeric myosin heavy chains
sarcomeric actin expression ([6]; immunoblot): remained unchanged
phosphorylation of 180-185 kDa proteins corresponding to ErbB2/ErbB4 receptors ([7]; 10^−8M compared with 10^−10M, cell lysates): a higher level of phosphorylated 180-185 kDa proteins
improvement of sarcomeres and cell-cell adhesions ([3]; 10^−8M concentration): maximal effect
cell structures when mixed with either IGF-1 or PE ([3]; rhNRGβ2 mixed with IGF-1 or PE): improved the cell structures
sarcomeric and cytoskeleton structures, cell-cell adhesions [3]: dramatically improved sarcomeric and cytoskeleton structures, as well as cell-cell adhesions
MHC-α expression under PE stimulation ([3]; with PE): overrode the negative regulation of MHC-α expression
effect on IGF-I (10^−9M)-stimulated DNA synthesis ([4]; 10^−8M NRG): significantly blocked the IGF-I response
effect on IGF-I (10^−9M)-stimulated DNA synthesis ([4]; 10^−10M NRG): little effect
DNA synthesis response versus control (vehicle) ([4]; all concentrations except 10^−7M, P<0.001, 20 hr): significantly greater than control
DNA synthesis ([4]; ligand concentrations >10^−10M): decreased
increase in DNA synthesis ([4]; rhNRGβ2 at 10^−10, 20 hr treatment, embryonic mouse cardiomyocytes (E11.5-12.5)): approximately 2 fold
duration of enhanced p21^CIP1 expression (p21^CIP1; 10^−8M): at least 24 hours
p21^CIP1 expression (p21^CIP1; 10^−8M (higher concentration), serum-free or 5% FBS, 24 hrs): increase in p21^CIP1 expression; also recorded: enhanced
ErbB receptor phosphorylation [8]: increased ErbB receptor phosphorylation with increasing ligand concentration
sarcomeric actin reorganisation and contractile unit assembly ([2]; 10^−8M): stimulated both sarcomeric actin reorganisation (phalloidin staining) and cardiac contractile unit assembly
sarcomeric actin reorganisation and contractile unit assembly ([2]; 10^−10M): much less evident

Second part, the molecule before the results:

Molecule: CNC[C@H](O)c1cccc(O)c1 [PE, phenylephrine]
surface area/cell of fully hypertrophied cells (ventricular muscle cells; non-exposed cells 581 μm^2): 1811 μm^2
hypertrophy score (maximal increase in cell size) (ventricular muscle cells): 7
sarcomeric and cytoskeleton structures, cell-cell adhesions [3]: not found

Molecule: CC[C@H](C)[C@H](NC(=O)[C@H](CC(=O)O)NC(=O)[C@H](CC(C)C)NC(=O)[C@H](Cc1c[nH]cn1)NC(=O)[C@@H]1CSSC[C@H](N)C(=O)N[C@@H](CO)C(=O)N[C@H]2CSSC[C@H](NC(=O)[C@H](CCC(=O)O)NC(=O)[C@H](CCCCN)NC(=O)[C@H](CC(=O)O)NC(=O)[C@H](CCSC)NC(=O)[C@H](CC(C)C)NC(=O)[C@H](CO)NC(=O)[C@H](CO)NC2=O)C(=O)N[C@@H](C(C)C)C(=O)N[C@@H](Cc2ccc(O)cc2)C(=O)N[C@@H](Cc2ccccc2)C(=O)N1)C(=O)N[C@H](C(=O)N[C@@H](Cc1c[nH]c2ccccc12)C(=O)O)[C@@H](C)CC [endothelin]
hypertrophy score (maximal increase in cell size) (ventricular muscle cells): ~5

Molecule: IGF-I: recombinant human insulin-like growth factor I, commercially obtained (Boehringer)
sarcomeric and cytoskeleton structures, cell-cell adhesions [3]: not found
DNA synthesis response ([4]; concentrations ranging from 10^−11M to 10^−7M): only a proliferative response
MAP kinase phosphorylation time course (p42/p44 MAP kinases [1]; IGF-I low (10^−9M) and high (10^−8M or 10^−7M) concentrations): transient
p21^CIP1 expression (p21^CIP1; IGF-I 10^−10M or 10^−8M): did not stimulate p21^CP1 expression
